The record followed here is the DeepSol protein solubility set.

This data set in a line: soluble on expression in E. coli; label from the status in PepcDB or PDB records.
Consider “DSMADITACPGTDTCNLGISSSTGLSVEIEKMLLEEFPDTVFNKNIKIKISGCMNACGQHTIGNIGFHGMSIKNGTNVLPAMQVMLGGGLEPDGTGTIADKILKLPTRRCVEAVREILTDYDTNATEGEYFNDYYRRQVAAEKMYFYKLLKPLSDLETLTELDYIDL”, for which the “soluble on expression in E. coli” value is on record as “not soluble”.
The value for “MLSFAPYRFSQVLEHQCTRNGSVLIRHTEEFTSKTCSRCGHIHYSLGGQKIFKCSNCGNHLPRDWNGALGNFLKALWDTTLEHHHHHH” was “not soluble”; that for “MGSDKIHHHHHHMDVLKEVLSLDQDKFDQLKETSRDKTNETDDPFENYLKDCKFKAPSNKDQSPFAKLKSLQETHSNNEAAINIIIPQLIDYLTEFTNRLSNYTQDLDFIKKKSNELQSLLEYNSTKLAHISPMVNDLMIPPELIDDIIKGKINESWQDNITFIADKEEIYNKYRSNNLDQDNKDAENSAMLAPKDFDKLCQLLDILKNVILERSKRLIISKIKTLRSHNPVPSQRIQNKLLKVQKIFPFIRDNNLSLALELRQAYCYTMKWYYREYFSRYIRSLTILQFQQIDSQFALGNGLSTTSVSGFNNSPSLFFSNYLTTSASNAFYNKLPVTDEKIDKYFQIKKRLNILTQEDNTVMVSQIAENNTTKNYIEIGFKNLNLAILDNCTVEYHFLKDFFAMNGDNFEEINGLLEQIFQPTFDEATTYTQQLIQYNYDIFGVLISIRVANQLQFESERRGIPSMFDSFLNGQLIQLWPRFQQLVDFQCESLRKAAITTNVAKYAGNSSTSNSSPLTSPHELTVQFGKFLSSFLTLAITHKQSIDERSEPLYNSIIRLRNDFETVMTKCSKKTKSPERFLATNYMYLYNNLQQLHLHLNINDSDAQNYNFDSAENVGTKVANDDDNDSSVPLIIRETENHFKTLVEAFTRN” was “not soluble”; that for “MGSDKIHHHHHHMTRRPPLINRLGATPVHPERDPAHPLVVFGDNRFCAGELLDVQKMAGPHMHSQIELNFVLEGSMTYWFDGRELTISEGRLCLFWGMIPHQVIDRREGTRFICLYVPMSVFLGLASLSQFRDSVFRGAVIEALHLRAWDREIFLRWRDELLGGDEGDIEIVRSELTARLMRIERDGWRDLREQGSALASLGQRDAGWMLHVEKMLRFIGEHAPDTISAEDVGRAAGLHPNYAMSLFKRAVGTTINQAIIRHRLDTAQSLLISSDMPITEVAYESGFGSLSTFYEAFQRRFMEKPVQYRRRMRAKGTAAQSIA” was “not soluble”.
The value for “MGSDKIHHHHHHMQTEVFSDIFPLLSTATPQTLEWLLNIAIDHEYPTGRAVLMEDAWGNAVYFVVSGWVKVRRTCGDDSVALAILGRGDFFGEMAILDESPRSTDVIALSPVKLLSISRERFIQILFKDPQLHHRMLQLMVRRLRQINQRLQIRSSPPAVKLAHTLVSLGESYGQESEQGREIFNIPFKDLAEVTEIGVEETSKIMDKLHDKGWIKIDSANNIIYLINFKQLLNLAGKV” was “not soluble”.
“GMVSRSPFESFQWKSDIFNCESTDIDNFYLLLEQEMTRLGMVEKNLGEVGKYKVSLYQSPAAKSGLPSLLISAGFHGEESAGPWGLLHFLSEASADLFERVNLSLLPLVNPTGFSRGHRFNKYGENPNRGFVFENGKPKANEHTSVEGKLLLDHAQLLIAACRDGILTCHEDVLSREAYVYSFEPSQVPGRFSLDLRDTLGGYFPIAVDGEIDACPVKDGLIFNHFDTSFEACLVRSGARVGACTETPALQNFDQRVLANSAAMTHFLALCAPLCD”: the “soluble on expression in E. coli” value is listed as “soluble”.
On to “MPLRHWGMARGSKPVGDGAQPMAAMGGLKVLLHWAGPGGGEPWVTFSESSLTAEEVCIHIAHKVGITPPCFNLFALFDAQAQVWLPPNHILEIPRDASLMLYFRIRFYFRNWHGMNPREPAVYRCGPPGTEASSDQTAQGMQLLDPASFEYLFEQGKHEFVNDVASLWELSTEEEIHHFKNESLGMAFLHLCHLALRHGIPLEEVAKKTSFKDCIPRSFRRHIRQHSALTRLRLRNVFRRFLRDFQPGRLSQQMVMVKYLATLERLAPRFGTERVPVCHLRLLAQAEGEPCYIRDSGVAPTDPGPESAAGPPTHEVLVTGTGGIQWWPVEEEVNKEEGSSGSSGRNPQASLFGKKAKAHKAVGQPADRPREPLWAYFCDFRDITHVVLKEHCVSIHRQDNKCLELSLPSRAAALSFVSLVDGYFRLTADSSHYLCHEVAPPRLVMSIRDGIHGPLLEPFVQAKLRPEDGLYLIHWSTSHPYRLILTVAQRSQAPDGMQSLRLRKFPIEQQDGAFVLEGWGRSFPSVRELGAALQGCLLRAGDDCFSLRRCCLPQPGETSNLIIMRGARASPRTLNLSQLSFHRVDQKEITQLSHLGQGTRTNVYEGRLRVEGSGDPEEGKMDDEDPLVPGRDRGQELRVVLKVLDPSHHDIALAFYETASLMSQVSHTHLAFVHGVCVRGPENIMVTEYVEHGPLDVWLRRERGHVPMAWKMVVAQQLASALSYLENKNLVHGNVCGRNILLARLGLAEGTSPFIKLSDPGVGLGALSREERVERIPWLAPECLPGGANSLSTAMDKWGFGATLLEICFDGEAPLQSRSPSEKEHFYQRQHRLPEPSCPQLATLTSQCLTYEPTQRPSFRTILRDLTRLQPHNLADVLTVNPDSPASDPTVFHKRYLKKIRDLGEGHFGKVSLYCYDPTNDGTGEMVAVKALKADCGPQHRSGWKQEIDILRTLYHEHIIKYKGCCEDQGEKSLQLVMEYVPLGSLRDYLPRHSIGLAQLLLFAQQICEGMAYLHSQHYIHRDLAARNVLLDNDRLVKIGDFGLAKAVPEGHEYYRVREDGDSPVFWYAPECLKEYKFYYASDVWSFGVTLYELLTHCDSSQSPPTKFLELIGIAQGQMTVLRLTELLERGERLPRPDKCPCEVYHLMKNCWETEASFRPTFENLIPILKTVHEKYQGQAPSVFSVC”, for which the “soluble on expression in E. coli” value is recorded as “soluble”.
With “MAHHHHHHMPTVSSSTPSPASTPTVGVPPGKVWLNADEPNDEYSLFCTEAIPPKVPGTVRIWVDGCFDMLHFGHANALRRARRLGDELFVGCHSDEEVMRFKGPPIMHAEERYEALRACKWVDHVVENYPYCTRLKDIERFEIDYVVHGDDISVDLNGRNSYQEIIDAGKFKVVKRTKGISTTDLVGRMLLCTKNHMLKSVDEVQLENSLLEHSPTMPCLTTSRKIVQFSNNSSPKPGDRIVYVDGSFDLFHIGHIRVLQKARELGDYVIAGVYEDQVVNEHKGKNYPIMSFNERVLGVLSCRYVDEVVMGVPFDVSKDVIDGLHINVVVGDKFSDLVVEEGGSTRYEVPKAMGIYHEVDSGCILSTDSLIDRVVENRLDFLKRQAEKRIKDTKSQEIKPDEYRKLREAS”, the “soluble on expression in E. coli” value was “not soluble”.
As for “MGSDKIHHHHHHENLYFQGAVDLDREGRDPAYVESIVKRSQKIVDKLELTDTVAAREVTTIIANRYFKLNDIYETRDAKVKLAKETLTGDAKQEAVKAAEAEKDAALYRTHFAFPADLSLYLDAKQIDAVKDGMTYGVVMVTYKATVDMIPTLKEEEKAQIMAWLVEAREFAMDAENSNKKHAAFGKYKGRINNYLSKRGYDLVKERKAWYERIKARGGKI”, the “soluble on expression in E. coli” value was “soluble”.
Then “MEYQHWLREAISQLQASESPRRDAEILLEHVTGRGRTFILAFGETQLTDEQCQQLDALLTRRRDGEPIAHLTGVREFWSLPLFVSPATLIPRPDTECLVEQALARLPEQPCRILDLGTGTGAIALALASERPDCEIIAVDRMPDAVSLAQRNAQHLAIKNIHILQSDWFSALAGQQFAMIVSNPPYIDEQDPHLQQGDVRFEPLTALVAADSGMADIVHIIEQSRNALVSGGFLLLEHGWQQGEAVRQAFILAGYHDVETCRDYGDNERVTLGRYYQ”, with “soluble”; and “MVINQTFLQNNVMDKCNDKRKRGERDWDCPAEKDICISDRRYQLCMKELTNLVNNTRTHSHNDITFLKLNLKRKLMYDAAVEGDLLLKKNNYQYNKEFCKDIRWGLGDFGDIIMGTNMEGIGYSQVVENNLRSIFGTDEKAKQDRKQWWNESKEHIWRAMMFSLRSRLKEKFVWICKKDVTLKVEPQIYRWIREWGRDYMSELPKEQGKLNEKCASKLYYNNMAICMLPLCHDACKSYDQWITRKKKQWDVLSTKFSSVKKTQKIGTENIATAYDILKQELNGFKEATFENEINKRDNLYNHLCPCVVEEARKNTQENVKNVGSGVESKAASSNPITE”, with “soluble”.
Then “MGSDKIHHHHHHMDKLMKICPTREIELQQKAKQLYEEEENRKIAYNAGLVEAEGYCQYTRLKEIIEFAKKCGYKKIGIAFCIGLKREMQTVQKIFEHHGFEVFSVICKNGAMPKSTIGLEASQTISKCSDEVMCNPIGQALFLNEAKVDLNVILGLCVGHDTLAMKYMEAPITTLVVKDRVTGHNPVAAIYNAESYFEKKLFDKDEE”, with “not soluble”.
